Target: the molecule itself
Experiment: SEC; gel filtration chromatography of purified His-RecN; single peak at a position indicating 308 kDa; column and buffer not told in the methods shown

B1: N-terminally hexahistidine-fused RecN (His-RecN), Escherichia coli (natural protein, E. coli, UniProt P05824 1-553, looked up)
chain: MLAQLTISNFAIVRELEIDFHSGMTVITGETGAGKSIAIDALGLCLGGRAEADMVRTGAARADLCARFSLKDTPAALRWLEENQLEDGHECLLRRVISSDGRSRGFINGTAVPLSQLRELGQLLIQIHGQHAHQLLTKPEHQKFLLDGYANETSLLQEMTARYQLWHQSCRDLAHHQQLSQERAARAELLQYQLKELNEFNPQPGEFEQIDEEYKRLANSGQLLTTSQNALALMADGEDANLQSQLYTAKQLVSELIGMDSKLSGVLDMLEEATIQIAEASDELRHYCDRLDLDPNRLFELEQRISKQISLARKHHVSPEALPQYYQSLLEEQQQLDDQADSQETLALAVTKHHQQALEIARALHQQRQQYAEELAQLITDSMHALSMPHGQFTIDVKFDEHHLGADGADRIEFRVTTNPGQPMQPIAKVASGGELSRIALAIQVITARKMETPALIFDEVDVGISGPTAAVVGKLLRQLGESTQVMCVTHLPQVAGCGHQHYFVSKETDGAMTETHMQSLNKKARLQELARLLGGSEVTRNTLANAKELLAA
notes: RecN, Escherichia coli; a fragment containing the recN gene from the pRecN plasmid cloned into pET15b; Copies: by gel filtration 'a homo-oligomeric complex, most likely a tetramer' (308 kDa); the discussion speaks of multimers larger than tetramers. pET15b may add linker residues between the His tag and RecN (surmised); also called E. coli RecN; source: E. coli BL21 (DE3), pET15b derivative, …
stoichiometry N: ~4

— article PMC6856136, “Topological DNA-binding of structural maintenance of chromosomes-like RecN promotes DNA double-strand break repair in Escherichia coli” (Communications Biology, 2019)
